molecular target: CD3 (target of the Pool 1 CD3.23 screen); assay: Octet, crude lysate
Sequence (P07766 23-126): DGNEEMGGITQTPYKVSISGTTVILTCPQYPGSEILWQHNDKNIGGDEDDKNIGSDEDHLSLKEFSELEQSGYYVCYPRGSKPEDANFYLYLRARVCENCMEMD

Row | Binder | Kd [nM]
1 | CD3.23-L7 (AC3364) (bispecific antibody, V domains shown) VH: EVQLLESGGGIVQPGGSLKLSCAASGFTFNTYAMNWVRQAPGKGLEWVARIRSKYNNYATYYADSVKDRFTISRDDSKNTVYLQMNNLKTEDTAVYYCVRHENFGNSYVSWFAHWGQGTLVTVSS VL: ELVVTQEPSLTVSPGGTVTLTCRSSNGAVTSSNYANWVQQKPGQAPRGLIGGTNKRAPGTPARFSGSLLGGKAALTLSGVQPEDEAVYYCALWYPNLWVFGGGTKLTVL | 8.5
2 | CD3.43 (AC3372) (bispecific antibody, V domains shown) VH: EVQLLESGGGIVQPGGSLKLSCAASGFTFNTYAMNWVRQAPGKGLEWSARIRSKYNNYATYYADSVKDRFTISRDDSKNTVYLQMNNLKTEDTAVYYCVRHENFGNSYVSWFAHWGQGTLVTVSS VL: ELVVTQEPSLTVSPGGTVTLTCRSSNGAVTSSNYANWVQQKPGQAPRGLIGGTNKRAPGTPARFSGSLLGGKAALTLSGVQPEDEAVYYCALWYPNLWVFGGGTKLTVL | 11.2
3 | CD3.73 (AC3402) (bispecific antibody, V domains shown) VH: EVQLLESGGGIVQPGGSLKLSCAASGFTFNTYAMNWVRQAPGKGLEWVARIRSKPNNYATYYADSVKDRFTISRDDSKNTVYLQMNNLKTEDTAVYYCVRHENFGNSYVSWFAHWGQGTLVTVSS VL: ELVVTQEPSLTVSPGGTVTLTCRSSNGAVTSSNYANWVQQKPGQAPRGLIGGTNKRAPGTPARFSGSLLGGKAALTLSGVQPEDEAVYYCALWYPNLWVFGGGTKLTVL | 33.1
4 | CD3.71 (AC3400) (bispecific antibody, V domains shown) VH: EVQLLESGGGIVQPGGSLKLSCAASGFTFNTYAMNWVRQAPGKGLEWVARIRSKGNNYATYYADSVKDRFTISRDDSKNTVYLQMNNLKTEDTAVYYCVRHENFGNSYVSWFAHWGQGTLVTVSS VL: ELVVTQEPSLTVSPGGTVTLTCRSSNGAVTSSNYANWVQQKPGQAPRGLIGGTNKRAPGTPARFSGSLLGGKAALTLSGVQPEDEAVYYCALWYPNLWVFGGGTKLTVL | 20.1
5 | CD3.23-D (AC3366) (bispecific antibody, V domains shown) VH: EVQLLESGGGIVQPGGSLKLSCAASGFTFNTYAMNWVRQAPGKGLEWVARIRSKYNNYATYYADSVKDRFTISRDDSKNTVYLQMNNLKTEDTAVYYCVRHENFGNSYVSWFAHWGQGTLVTVSS VL: ELVVTQEPSLTVSPGGTVTLTCRSSNGAVTSSNYANWVQQKPGQAPRGLIGGTNKRAPGTPARFSGSLLGGKAALTLSGVQPEDEAVYYCALWYPNLWVFGGGTKLTVL | 14
6 | CD3.39 (AC3368) (bispecific antibody, V domains shown) VH: EVQLLESGGGIVQPGGSLKLSCAASGFTFNTYAMNWVRQAPGKGLEEVARIRSKYNNYATYYADSVKDRFTISRDDSKNTVYLQMNNLKTEDTAVYYCVRHENFGNSYVSWFAHWGQGTLVTVSS VL: ELVVTQEPSLTVSPGGTVTLTCRSSNGAVTSSNYANWVQQKPGQAPRGLIGGTNKRAPGTPARFSGSLLGGKAALTLSGVQPEDEAVYYCALWYPNLWVFGGGTKLTVL | 18.1
7 | CD3.54 (AC3383) (bispecific antibody, V domains shown) VH: EVQLLESGGGIVQPGGSLKLSCAASGFTFNTYAMNWVRQAPGKGLEWVARARSKYNNYATYYADSVKDRFTISRDDSKNTVYLQMNNLKTEDTAVYYCVRHENFGNSYVSWFAHWGQGTLVTVSS VL: ELVVTQEPSLTVSPGGTVTLTCRSSNGAVTSSNYANWVQQKPGQAPRGLIGGTNKRAPGTPARFSGSLLGGKAALTLSGVQPEDEAVYYCALWYPNLWVFGGGTKLTVL | 1180
8 | CD3.44 (AC3373) (bispecific antibody, V domains shown) VH: EVQLLESGGGIVQPGGSLKLSCAASGFTFNTYAMNWVRQAPGKGLEWTARIRSKYNNYATYYADSVKDRFTISRDDSKNTVYLQMNNLKTEDTAVYYCVRHENFGNSYVSWFAHWGQGTLVTVSS VL: ELVVTQEPSLTVSPGGTVTLTCRSSNGAVTSSNYANWVQQKPGQAPRGLIGGTNKRAPGTPARFSGSLLGGKAALTLSGVQPEDEAVYYCALWYPNLWVFGGGTKLTVL | 5.7
9 | CD3.38 (AC3367) (bispecific antibody, V domains shown) VH: EVQLLESGGGIVQPGGSLKLSCAASGFTFNTYAMNWVRQAPGKGLEDVARIRSKYNNYATYYADSVKDRFTISRDDSKNTVYLQMNNLKTEDTAVYYCVRHENFGNSYVSWFAHWGQGTLVTVSS VL: ELVVTQEPSLTVSPGGTVTLTCRSSNGAVTSSNYANWVQQKPGQAPRGLIGGTNKRAPGTPARFSGSLLGGKAALTLSGVQPEDEAVYYCALWYPNLWVFGGGTKLTVL | 40.2
10 | CD3.41 (AC3370) (bispecific antibody, V domains shown) VH: EVQLLESGGGIVQPGGSLKLSCAASGFTFNTYAMNWVRQAPGKGLEWEARIRSKYNNYATYYADSVKDRFTISRDDSKNTVYLQMNNLKTEDTAVYYCVRHENFGNSYVSWFAHWGQGTLVTVSS VL: ELVVTQEPSLTVSPGGTVTLTCRSSNGAVTSSNYANWVQQKPGQAPRGLIGGTNKRAPGTPARFSGSLLGGKAALTLSGVQPEDEAVYYCALWYPNLWVFGGGTKLTVL | 165
11 | CD3.68 (AC3397) (bispecific antibody, V domains shown) VH: EVQLLESGGGIVQPGGSLKLSCAASGFTFNTYAMNWVRQAPGKGLEWVARIRSPYNNYATYYADSVKDRFTISRDDSKNTVYLQMNNLKTEDTAVYYCVRHENFGNSYVSWFAHWGQGTLVTVSS VL: ELVVTQEPSLTVSPGGTVTLTCRSSNGAVTSSNYANWVQQKPGQAPRGLIGGTNKRAPGTPARFSGSLLGGKAALTLSGVQPEDEAVYYCALWYPNLWVFGGGTKLTVL | 51
12 | CD3.70 (AC3399) (bispecific antibody, V domains shown) VH: EVQLLESGGGIVQPGGSLKLSCAASGFTFNTYAMNWVRQAPGKGLEWVARIRSKRNNYATYYADSVKDRFTISRDDSKNTVYLQMNNLKTEDTAVYYCVRHENFGNSYVSWFAHWGQGTLVTVSS VL: ELVVTQEPSLTVSPGGTVTLTCRSSNGAVTSSNYANWVQQKPGQAPRGLIGGTNKRAPGTPARFSGSLLGGKAALTLSGVQPEDEAVYYCALWYPNLWVFGGGTKLTVL | 3.8
13 | CD3.56 (AC3385) (bispecific antibody, V domains shown) VH: EVQLLESGGGIVQPGGSLKLSCAASGFTFNTYAMNWVRQAPGKGLEWVARTRSKYNNYATYYADSVKDRFTISRDDSKNTVYLQMNNLKTEDTAVYYCVRHENFGNSYVSWFAHWGQGTLVTVSS VL: ELVVTQEPSLTVSPGGTVTLTCRSSNGAVTSSNYANWVQQKPGQAPRGLIGGTNKRAPGTPARFSGSLLGGKAALTLSGVQPEDEAVYYCALWYPNLWVFGGGTKLTVL | 425
14 | CD3.67 (AC3396) (bispecific antibody, V domains shown) VH: EVQLLESGGGIVQPGGSLKLSCAASGFTFNTYAMNWVRQAPGKGLEWVARIRTKYNNYATYYADSVKDRFTISRDDSKNTVYLQMNNLKTEDTAVYYCVRHENFGNSYVSWFAHWGQGTLVTVSS VL: ELVVTQEPSLTVSPGGTVTLTCRSSNGAVTSSNYANWVQQKPGQAPRGLIGGTNKRAPGTPARFSGSLLGGKAALTLSGVQPEDEAVYYCALWYPNLWVFGGGTKLTVL | 4.8
15 | CD3.72 (AC3401) (bispecific antibody, V domains shown) VH: EVQLLESGGGIVQPGGSLKLSCAASGFTFNTYAMNWVRQAPGKGLEWVARIRSKKNNYATYYADSVKDRFTISRDDSKNTVYLQMNNLKTEDTAVYYCVRHENFGNSYVSWFAHWGQGTLVTVSS VL: ELVVTQEPSLTVSPGGTVTLTCRSSNGAVTSSNYANWVQQKPGQAPRGLIGGTNKRAPGTPARFSGSLLGGKAALTLSGVQPEDEAVYYCALWYPNLWVFGGGTKLTVL | 5.1
16 | CD3.60 (AC3389) (bispecific antibody, V domains shown) VH: EVQLLESGGGIVQPGGSLKLSCAASGFTFNTYAMNWVRQAPGKGLEWVARIQSKYNNYATYYADSVKDRFTISRDDSKNTVYLQMNNLKTEDTAVYYCVRHENFGNSYVSWFAHWGQGTLVTVSS VL: ELVVTQEPSLTVSPGGTVTLTCRSSNGAVTSSNYANWVQQKPGQAPRGLIGGTNKRAPGTPARFSGSLLGGKAALTLSGVQPEDEAVYYCALWYPNLWVFGGGTKLTVL | 434
17 | CD3.42 (AC3371) (bispecific antibody, V domains shown) VH: EVQLLESGGGIVQPGGSLKLSCAASGFTFNTYAMNWVRQAPGKGLEWGARIRSKYNNYATYYADSVKDRFTISRDDSKNTVYLQMNNLKTEDTAVYYCVRHENFGNSYVSWFAHWGQGTLVTVSS VL: ELVVTQEPSLTVSPGGTVTLTCRSSNGAVTSSNYANWVQQKPGQAPRGLIGGTNKRAPGTPARFSGSLLGGKAALTLSGVQPEDEAVYYCALWYPNLWVFGGGTKLTVL | 71.5
18 | CD3.69 (AC3398) (bispecific antibody, V domains shown) VH: EVQLLESGGGIVQPGGSLKLSCAASGFTFNTYAMNWVRQAPGKGLEWVARIRSKANNYATYYADSVKDRFTISRDDSKNTVYLQMNNLKTEDTAVYYCVRHENFGNSYVSWFAHWGQGTLVTVSS VL: ELVVTQEPSLTVSPGGTVTLTCRSSNGAVTSSNYANWVQQKPGQAPRGLIGGTNKRAPGTPARFSGSLLGGKAALTLSGVQPEDEAVYYCALWYPNLWVFGGGTKLTVL | 11.5
19 | CD3.45 (AC3374) (bispecific antibody, V domains shown) VH: EVQLLESGGGIVQPGGSLKLSCAASGFTFNTYAMNWVRQAPGKGLEWWARIRSKYNNYATYYADSVKDRFTISRDDSKNTVYLQMNNLKTEDTAVYYCVRHENFGNSYVSWFAHWGQGTLVTVSS VL: ELVVTQEPSLTVSPGGTVTLTCRSSNGAVTSSNYANWVQQKPGQAPRGLIGGTNKRAPGTPARFSGSLLGGKAALTLSGVQPEDEAVYYCALWYPNLWVFGGGTKLTVL | 34300
20 | CD3.74 (AC3403) (bispecific antibody, V domains shown) VH: EVQLLESGGGIVQPGGSLKLSCAASGFTFNTYAMNWVRQAPGKGLEWVARIRSKTNNYATYYADSVKDRFTISRDDSKNTVYLQMNNLKTEDTAVYYCVRHENFGNSYVSWFAHWGQGTLVTVSS VL: ELVVTQEPSLTVSPGGTVTLTCRSSNGAVTSSNYANWVQQKPGQAPRGLIGGTNKRAPGTPARFSGSLLGGKAALTLSGVQPEDEAVYYCALWYPNLWVFGGGTKLTVL | 11.1
21 | CD3.40 (AC3369) (bispecific antibody, V domains shown) VH: EVQLLESGGGIVQPGGSLKLSCAASGFTFNTYAMNWVRQAPGKGLEWAARIRSKYNNYATYYADSVKDRFTISRDDSKNTVYLQMNNLKTEDTAVYYCVRHENFGNSYVSWFAHWGQGTLVTVSS VL: ELVVTQEPSLTVSPGGTVTLTCRSSNGAVTSSNYANWVQQKPGQAPRGLIGGTNKRAPGTPARFSGSLLGGKAALTLSGVQPEDEAVYYCALWYPNLWVFGGGTKLTVL | 8.3
22 | CD3.48 (AC3377) (bispecific antibody, V domains shown) VH: EVQLLESGGGIVQPGGSLKLSCAASGFTFNTYAMNWVRQAPGKGLEWVGRIRSKYNNYATYYADSVKDRFTISRDDSKNTVYLQMNNLKTEDTAVYYCVRHENFGNSYVSWFAHWGQGTLVTVSS VL: ELVVTQEPSLTVSPGGTVTLTCRSSNGAVTSSNYANWVQQKPGQAPRGLIGGTNKRAPGTPARFSGSLLGGKAALTLSGVQPEDEAVYYCALWYPNLWVFGGGTKLTVL | 4.5
